The text below walks through data of patent publication US20230067770A1 (SHANGHAI HENLIUS BIOTECH, published 2023).

Where a chain is given by its changes, count along the chain named. In names and notes the source's numbering stands.

B1: 2-9-1 IgG1 SELF (antibody)
heavy: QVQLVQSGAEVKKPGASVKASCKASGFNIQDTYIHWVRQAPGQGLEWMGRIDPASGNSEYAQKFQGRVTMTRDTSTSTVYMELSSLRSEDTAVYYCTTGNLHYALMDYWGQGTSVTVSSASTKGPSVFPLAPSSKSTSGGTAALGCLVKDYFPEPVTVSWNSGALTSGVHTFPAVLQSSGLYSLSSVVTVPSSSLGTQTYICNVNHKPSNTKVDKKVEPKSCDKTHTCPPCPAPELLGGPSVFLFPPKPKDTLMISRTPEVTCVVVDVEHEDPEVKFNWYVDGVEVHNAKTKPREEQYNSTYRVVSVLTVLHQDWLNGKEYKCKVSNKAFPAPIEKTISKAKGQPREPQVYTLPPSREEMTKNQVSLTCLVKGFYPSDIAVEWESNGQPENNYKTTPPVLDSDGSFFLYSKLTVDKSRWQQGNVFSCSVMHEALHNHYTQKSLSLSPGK
light: DIQMTQSPSSVSASVGDRVTITCKASQPINTYLSWYQQKPGKAPKLLIYRVNRKVDGVPSRFSGSGSGTDFTLTISSLQPEDFATYYCLQYLDFPYTFGGGTKLEIKRTVAAPSVFIFPPSDEQLKSGTASVVCLLNNFYPREAKVQWKVDNALQSGNSQESVTEQDSKDSTYSLSSTLTLSKADYEKHKVYACEVTHQGLSSPVTKSFNRGEC
notes: Subclone of 2-9 with an IgG1 Fc carrying S267E/L328F; also called clone 2-9-1 IgG1 SELF; Clone 2-9 IgG1 SELF
B2: 2-9-2 IgG4 (antibody)
heavy: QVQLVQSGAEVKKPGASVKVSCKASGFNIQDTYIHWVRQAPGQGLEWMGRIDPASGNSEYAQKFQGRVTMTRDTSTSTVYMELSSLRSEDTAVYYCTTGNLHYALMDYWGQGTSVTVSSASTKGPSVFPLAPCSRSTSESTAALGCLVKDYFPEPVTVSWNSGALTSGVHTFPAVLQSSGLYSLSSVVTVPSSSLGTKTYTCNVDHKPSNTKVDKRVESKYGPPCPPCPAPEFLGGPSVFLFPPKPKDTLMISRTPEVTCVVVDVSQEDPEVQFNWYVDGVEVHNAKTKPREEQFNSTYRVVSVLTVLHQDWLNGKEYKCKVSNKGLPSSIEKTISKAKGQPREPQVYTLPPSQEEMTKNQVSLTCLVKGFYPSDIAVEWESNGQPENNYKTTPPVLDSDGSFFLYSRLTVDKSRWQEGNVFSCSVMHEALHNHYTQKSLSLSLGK
light: B1 light
notes: Subclone of 2-9; also called clone 2-9-2 IgG4 wt
B3: Clone 23 (Fab in supernatant) (Fab, V domains shown)
VH: QVQLVQSGAEVKKPGASVKVSCKASGFNIKDTYIHWVRQAPGQGLEWMGKIDPANGQTEYAQKFQGRVTMTRDTSTSTVYMELSSLRSEDTAVYYCTTGNLHYALMDYWGQGTSVTVSS
VL: DIQMTQSPSSVSASVGDRVTITCKASQAINTYLSWYQQKPGKAPKLLIYRANRMVGGVPSRFSGSGSGTDFTLTISSLQPEDFATYYCLQYRDFPYTFGGGTKLEIKR
notes: Screened as Fab in supernatant
B4: Clone 18 (Fab in supernatant) (Fab, V domains shown)
VH: B3 VH with K23Q, E46G, Q57M, M70V
VL: B3 VL with I29P, G56D, R92E
notes: as for B3
B5: Clone 19 (Fab in supernatant) (Fab, V domains shown)
VH: B3 VH with I29M, Q57A, A104G
VL: B3 VL with V55G, G56D, Y91S, R92D
notes: as for B3
B6: Clone 3 (Fab in supernatant) (Fab, V domains shown)
VH: B3 VH with I29P, K50R, Q57F
VL: B3 VL with G56D, P80H, Y91S, R92D
notes: Screened as Fab in SS320 culture supernatant
B7: Clone 25 (Fab in supernatant) (Fab, V domains shown)
VH: B3 VH with K30Q, K50R, Q57N, T58S, A104G
VL: B3 VL with A51D, M54K, G56D, R92Q, T97K
notes: as for B3
B8: Clone 35 (Fab in supernatant) (Fab, V domains shown)
VH: B3 VH with K30N, K50R, Q57Y
VL: B3 VL with N30A, G56D, Y91F, R92Q
notes: as for B3
B9: Clone 33 (Fab in supernatant) (Fab, V domains shown)
VH: B3 VH with H35Q, Q57N, E59M
VL: B3 VL with A28T, V55P, G56D, R92D
notes: as for B3
B10: Clone 2-11 (Fab in supernatant) (Fab, V domains shown)
VH: B3 VH with Q57G
VL: B3 VL with A28P, A51V, M54K, G56D, R92V
notes: as for B3
B11: Clone 9 (Fab in supernatant) (Fab, V domains shown)
VH: B3 VH with I29L, Q57N
VL: B3 VL with N30A, V55Y, G56D, Y91F, R92D
notes: as for B3
B12: Clone 5 (Fab in supernatant) (Fab, V domains shown)
VH: B3 VH with K30R, Q57N, A104G
VL: B3 VL with L33H, A51V, G56D, R92L
notes: as for B3
B13: Clone 20 (Fab in supernatant) (Fab, V domains shown)
VH: B3 VH with I29M, Q57D
VL: B3 VL with M54A, G56D, R92L
notes: as for B3
B14: hybridoma anti-CD137 antibody clone 6.62 (antibody, V domains shown)
VH: QIQLVQSGPELKKPGETVKISCKASGYSFTDYSIHWVKQAPGKGLKWMGWMNTETGEPAYADDFKGRFAFSLETAASTAYLQINHLRDEDTATYFCTRSSYGYFDYWGQGTTLTVSS
VL: DVVMTQTPLSLPVSLGDQAAISCRSSQTLEHINGNTYLEWYLQKPGQSPKLLIYKVSDRFSGVPDRFSGSGSGTGFTLKISRVEAEDLGVYYCFQGSHFPLTFGGGTKLELK
notes: Tested as hybridoma supernatant
B15: hybridoma anti-CD137 antibody clone 3.10 (antibody, V domains shown)
VH: EVQLVESGPGLVAPSQSLSITCTVSGFSLTTYDVSWIRQPPGKGLEWLGVIWTGGGTNYNSTFMSRLTISKDNSKNQVFLKMNSLQTDDTATYYCVRVDYWGQGTTLTVSR
VL: DVVMTQTPLSLPVSLGGHASISCRSSQSLVHNNGNTYLHWFLQKPGQSPKLLIYKVSNRFSGVPDRFSGSGSGTDFTLKISRVEAEDLGVYFCSQNAHVPWTFGGGTKLEIKR
notes: as for B14
B16: hybridoma anti-CD137 antibody clone 29.39 (antibody, V domains shown)
VH: EVKLMESGAELVKPGASVKLSCTASGFNIKDTYIHWVKQRPEQGLEWIGKIDPANGNTEYDLNFQGRATITADTSSNTAYLQLSSLTSEDTAVYYCTTGNLHYYLMDYWGQGTSVTSLE
VL: DIVMTQSPSSMYASLGERVTITCKASQAINTYLSWFQQKPGKSPKTLIYRANRMVDGVPSRFSGSGSGQDYSLTISSLDYEDMGIYYCLQYDDFPYTFGGGTKLEIKR
notes: as for B14
B17: hybridoma anti-CD137 antibody clone 30.19 (antibody, V domains shown)
VH: B14 VH
VL: B16 VL
notes: as for B14
B18: hybridoma anti-CD137 antibody clone 44.21 (antibody, V domains shown)
VH: B16 VH
VL: B15 VL with V2I, G17D, N32S, L109R, E110K, I111S, K112N, R113E
notes: as for B14
B19: aCD137-scFv-αEGFR-IgG1-Linker7 (bispecific antibody)
heavy: not shown
light: EIVLTQSPATLSLSPGERATLSCRASQSIGTNIHWYQQKPGQAPRLLIKYASESISGIPARFSGSGSGTDFTLTISSLEPEDFAVYYCQQNNNWPTSFGGGTKVEIKRTVAAPSVFIFPPSDEQLKSGTASVVCLLNNFYPREAKVQWKVDNALQSGNSQESVTEQDSKDSTYSLSSTLTLSKADYEKHKVYACEVTHQGLSSPVTKSFNRGEC
notes: also called Anti-EGFR HC-anti-CD137 scFv-IgG1-Linker 7 (HCC)
B20: aCD137-scFv-αEGFR-IgG1-Linker 10 (bispecific antibody)
heavy: not shown
light: B19 light
B21: aCD137-scFv-αEGFR-IgG1-LALA-Linker 10 (bispecific antibody)
heavy: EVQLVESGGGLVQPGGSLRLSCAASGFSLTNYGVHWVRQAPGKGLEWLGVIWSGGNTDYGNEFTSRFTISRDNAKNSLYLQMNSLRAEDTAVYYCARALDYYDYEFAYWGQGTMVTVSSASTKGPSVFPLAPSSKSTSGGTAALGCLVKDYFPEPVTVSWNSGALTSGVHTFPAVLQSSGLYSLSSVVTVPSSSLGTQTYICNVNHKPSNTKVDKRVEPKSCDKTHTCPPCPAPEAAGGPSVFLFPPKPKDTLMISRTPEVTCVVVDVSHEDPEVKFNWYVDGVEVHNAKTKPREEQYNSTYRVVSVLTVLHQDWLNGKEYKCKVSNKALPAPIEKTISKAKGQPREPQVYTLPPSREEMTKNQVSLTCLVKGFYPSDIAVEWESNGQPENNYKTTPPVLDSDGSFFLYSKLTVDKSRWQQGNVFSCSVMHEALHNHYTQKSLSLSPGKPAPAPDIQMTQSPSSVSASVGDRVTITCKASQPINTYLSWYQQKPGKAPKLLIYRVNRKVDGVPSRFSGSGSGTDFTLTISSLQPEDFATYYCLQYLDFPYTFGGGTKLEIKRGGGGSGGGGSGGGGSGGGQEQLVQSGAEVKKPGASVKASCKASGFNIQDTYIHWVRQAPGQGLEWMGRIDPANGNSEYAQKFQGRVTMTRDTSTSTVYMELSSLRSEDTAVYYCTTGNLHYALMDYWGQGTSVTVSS
light: B19 light
notes: The Linker 10 bispecific with the LALA mutation in the IgG1 Fc; also called Anti-EGFR HC-anti-CD137 scFv-IgG1 LALA-Linker 10 (HCC)
B22: aCD137scFv-αEGFR-IgG1-LALA (Linker 7) (bispecific antibody)
heavy: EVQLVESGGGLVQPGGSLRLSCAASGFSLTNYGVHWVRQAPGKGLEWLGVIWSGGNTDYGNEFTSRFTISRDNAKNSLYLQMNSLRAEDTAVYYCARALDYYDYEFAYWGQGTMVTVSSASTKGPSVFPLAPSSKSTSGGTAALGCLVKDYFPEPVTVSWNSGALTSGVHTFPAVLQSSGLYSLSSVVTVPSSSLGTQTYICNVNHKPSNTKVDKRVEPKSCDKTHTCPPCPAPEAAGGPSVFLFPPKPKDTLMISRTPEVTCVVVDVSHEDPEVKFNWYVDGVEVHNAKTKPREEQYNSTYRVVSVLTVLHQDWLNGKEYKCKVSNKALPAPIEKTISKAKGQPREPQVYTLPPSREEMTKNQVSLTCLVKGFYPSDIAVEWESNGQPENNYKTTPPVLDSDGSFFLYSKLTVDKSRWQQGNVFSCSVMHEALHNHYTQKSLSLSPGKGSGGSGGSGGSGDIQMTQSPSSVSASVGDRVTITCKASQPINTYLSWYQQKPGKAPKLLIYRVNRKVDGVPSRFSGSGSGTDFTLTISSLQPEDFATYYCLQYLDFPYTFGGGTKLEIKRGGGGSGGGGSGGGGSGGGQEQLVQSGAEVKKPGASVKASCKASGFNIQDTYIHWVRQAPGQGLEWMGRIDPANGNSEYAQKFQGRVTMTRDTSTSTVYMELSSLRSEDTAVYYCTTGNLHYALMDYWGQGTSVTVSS
light: B19 light
notes: The Linker 7 bispecific with the LALA mutation in the IgG1 Fc; also called Anti-EGFR-HC-anti-CD137 scFv-IgG1-LALA-Linker 7 (HCC); αCD137scFv-αEGFR-IgG1 LALA

T4 sequence (Q07011 24-255 limits assumed): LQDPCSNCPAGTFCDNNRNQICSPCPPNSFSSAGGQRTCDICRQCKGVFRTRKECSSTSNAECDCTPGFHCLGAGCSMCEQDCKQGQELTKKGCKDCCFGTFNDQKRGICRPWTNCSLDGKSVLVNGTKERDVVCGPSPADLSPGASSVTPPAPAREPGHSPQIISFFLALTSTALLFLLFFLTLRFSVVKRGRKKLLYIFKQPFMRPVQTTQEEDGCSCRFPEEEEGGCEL

The target in one assay is T1, Human CD137-his (human, UniProt Q07011 24-186).
T1 construct: Bought reagent; also called Human CD137-His (Sino Biological, 10041-H08H)
The assay can be described thus: BLI (Octet), third comparison, antibody captured on AHC sensor. As to the method: (§1) Biolayer interferometry was used to measure the association and dissociation constants for the binding kinetics of the anti-CD137 antibodies. The binding kinetics was measured on a FortieBio Octet Red 96 at 30° C. and analyzed with the FortieBio Data Analysis 9.0 software. Anti-human-IgG Fc (AHC) sensor was used to capture the anti-CD137 antibodies or control antibodies. A kinetic buffer only well was set as a reference well for subtraction during data processing. Data were fitted with a 1:1 Langmuir model for association and dissociation using Rmax linked global fitting for each antibody-antigen binding. Human CD137-his is a recombinant CD137 antigen with a poly histidine tag fused to C-terminus of human CD137 antigen (Sino Biological, 10041-H08H). Cyno CD137-his is a recombinant CD137 antigen with a poly histidine tag fused to C-terminus of cynomolgus CD137 antigen (Sino Biological, 90847-K02H-100).
The molecule B1 showed a Kd of 11.1 nM, a koff of 0.0006 s⁻¹ and an on-rate (kon) of 54100 M⁻¹ s⁻¹.

B2 had a Kd of 12.9 nM, a koff of 0.000801 s⁻¹ and a kon of 62200 M⁻¹ s⁻¹.

The next assay deals with T2, human-CD137 (ELISA antigen of the affinity maturation screen) (human, UniProt Q07011 24-186, limits assumed).
T2 construct: also called human-CD137 ECD
The assay can be described thus: ELISA of Fab in supernatants after phage panning.
For the molecule B3, the binding result is recorded as “binds”.

In the case of B4, the binding result is “binds”.

On to B5, for which the binding result is given as “binds”.

Consider B6, for which the binding result is reported as “binds”.

As for B7, the binding result is “binds”.

Consider B8, for which the binding result is “binds”.

Regarding B9, the binding result is on record as “binds”.

For the molecule B10, the binding result is recorded as “binds”.

Consider B11, for which the binding result is given as “binds”.

Turning to B12, the binding result is given as “binds”.

Regarding B13, the binding result is recorded as “binds”.

Another assay has as its target T3, human CD137-Fc fusion protein (human, UniProt Q07011 24-186, limits assumed).
T3 construct: also called huCD137
In words: ELISA, hybridoma supernatant on plates coated with human CD137-Fc fusion protein. On the procedure: Hybridoma screening. Detection of binding to huCD137 by ELISA: To identify hybridomas secreting anti-human CD137 antibodies, ELISA plates (Corning) were coated with human CD137-Fc fusion protein at 1 μg/ml in PBS overnight at 4° C. […] Thirty microliters of supernatants diluted 1:3 in PBS were added to the plates and incubated for 1-2 hour at ambient temperature. Afterwards, the plates were washed as before, and binding of antibodies was detected through Horseradish peroxidase (HRP)-conjugated goat F(ab′)2 anti-human IgG. The plates were developed with TMB and read at 450 nm.
On to B14, for which the binding result was “binds”.

As to B15, the binding result is listed as “binds”.

As for B16, the binding result is on record as “binds”.

Take B17: the binding result is recorded as “binds”.

Consider B18, for which the binding result is listed as “binds”.

For the next assay, the target named is T1, Human CD137-his. In words: BLI (Octet), second round, antibody captured on AHC sensor. As to the method:
as §1
On to B1, for which binding was characterised by a dissociation constant (Kd) of 6.55 nM, the koff came to 0.00034 s⁻¹ and the on-rate constant (kon) came to 52000 M⁻¹ s⁻¹.

A further assay concerns the target T4, CD137 on CD137 stably transfected 293T cells (UniProt Q07011 24-255, limits assumed).
T4 construct: whole, on cells; also called CD137/NF-κB reporter cells
The assay can be described thus: flow cytometry, whole cell binding to CD137/NFkB 293T cells, Alexa Fluor 488 anti-human IgG F(ab')2 secondary, median fluorescence intensity. As to the method:
(§2) The binding affinity of bispecific antibodies to cell surface receptors was also quantified in whole cell binding assay. […] Afterwards, cells were washed with PBS twice and then incubated with secondary Alexa Fluor® 488 AffiniPure Goat Anti-Human IgG, F(ab′)2 fragment specific antibody (Jackson ImmunoResearch, Code 109-545-006) for 30 min at 4° C. in FACS buffer. The cells were then washed with PBS twice and resuspended in FACS buffer. […] The median fluorescence intensity was fitted using a non-linear model with GraphPad 8.0.
(§3) The anti-CD137×EGFR bispecific antibodies included variants with IgG1 wild type Fc, IgG1 Fc with LALA mutation and different linkers.
For the molecule B19, the “EC50 (read off the curve)” value is around 10 nM.

B20: the “EC50 (read off the curve)” value was around 10 nM.

With B21, the “EC50 (read off the curve)” value is around 10 nM.

Take B22: the “EC50 (read off the curve)” value was around 10 nM.

The target of a further assay is T5, EGFR on SK-Hep1 cells (UniProt P00533 25-1210, limits assumed).
T5 construct: whole, on cells; also called EGFR positive SK-Hep1 tumor cells; EGFR high SK-Hep1 cells
The assay can be described thus: flow cytometry, whole cell binding to SKHep1 EGFR high cells, Alexa Fluor 488 anti-human IgG F(ab')2 secondary, median fluorescence intensity. As to the method: as §2, §3
As to B19, the “EC50 (read off the curve)” value was around 0.3 nM.

Take B20: the “EC50 (read off the curve)” value is around 0.3 nM.

Take B21: the “EC50 (read off the curve)” value was around 0.2 nM.

As to B22, the “EC50 (read off the curve)” value is around 0.2 nM.
